Measurements as given in patent US20250197490A1 (HBM ALPHA THERAPEUTICS, published 2025).

Key:
[1] = target: T1, N-Terminal CRH peptide (N-terminal region plus central region, CT biotin) (human and mouse, C-terminal K-Biotin); assay: ELISA, N-Ter-CRH (CT-biotin) on streptavidin
T1 construct: also called N-Ter-CRH
T1 peptide: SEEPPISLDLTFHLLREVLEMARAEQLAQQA
Method in brief: (§1)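 Steps: coat with streptavidin 2 μg/ml overnight at 4° C; wash; add HRP-conjugated goat anti-human IgG (H+L), 37° C for 1 hour; develop with TMB at room temperature 15 minutes; stop and measure OD at 450 nm.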

[2] = target: T2, human UCN1 peptide, biotinylated (human, UniProt P55089 83-122, biotin at N- or C-terminus); assay: ELISA, hUCN1 (NT biotin) and (CT biotin)
T2 construct: also called hUCN1 (NT Biotin); hUCN1 (CT Biotin)
T2 peptide (looked up): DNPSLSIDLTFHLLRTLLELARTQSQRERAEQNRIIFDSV
Protocol: Streptavidin (Thermo, Cat: 21125) was diluted in PBS with a concentration of 2 μg/mL. 100 μL of diluted streptavidin was added per well to ELISA microplates, and the plates were incubated overnight at 4° C. Plates were blocked with ELISA blocking solution (containing 2% w/v BSA, 0.05% (v/v) Tween-20, pH 7.4 PBS buffer) at 37° C. for 1 hour, and then incubated with either 1 μg/mL hUCN1 (NT Biotin), hUCN1 (CT Biotin), hUCN2 (NT Biotin), hUCN2 (CT Biotin), hUCN3 (NT Biotin), or hUCN3 (CT Biotin) for 1 hour at 37° C. […] Plates were subsequently washed and incubated with HRP-conjugated goat anti-human IgG (H+L) antibody (Jackson, Cat: 109-035-088) at 37° C. for 1 hour. 100 μl of TMB Substrate (Biopanda, Cat: TMB-S-003) was added, and the plates were incubated at room temperature for 15 minutes. 100 μL of ELISA stopping solution (Solarbio, Cat #: C1058) was then added to terminate the reaction, and the OD450 nm was determined by an ELISA plate reader (Molecular Devices, Spectra max 384 plus).

biotinylated CRH [3] = target: T3, biotinylated CRH (human and mouse, UniProt P01143 145-185 (rat entry), not fully specified; biotin; which end is not stated for the result (NT-biotin and CT-biotin forms were used)); assay: ELISA, CRH (CT biotin)
T3 construct: also called biotin-CRH; CRH (NT biotin)
T3 peptide: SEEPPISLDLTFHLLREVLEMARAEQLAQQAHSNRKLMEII
Method in brief: as §1

biotinylated CRH [4] = target: T3, biotinylated CRH; assay: ELISA, CRH (NT biotin)
Method in brief: as §1

[5] = target: T4, human UCN2 peptide, biotinylated (human, UniProt Q96RP3 72-109, limits assumed, biotin at N- or C-terminus); assay: ELISA, hUCN2 (NT biotin) and (CT biotin)
T4 construct: also called hUCN2 (NT Biotin); hUCN2 (CT Biotin)
T4 peptide (looked up): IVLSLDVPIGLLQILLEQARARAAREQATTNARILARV

[6] = target: T5, human UCN3 peptide, biotinylated (human, UniProt Q969E3 120-157, biotin at N- or C-terminus); assay: ELISA, hUCN3 (NT biotin) and (CT biotin)
T5 construct: also called hUCN3 (NT Biotin); hUCN3 (CT Biotin)
T5 peptide (looked up): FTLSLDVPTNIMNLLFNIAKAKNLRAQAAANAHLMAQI

[7] = target: T6, CRH (Central Region, CT Biotin) (C-terminal K-Biotin); assay: ELISA, CRH central region peptide (CT biotin)
T6 construct: also called Central CRH
T6 peptide: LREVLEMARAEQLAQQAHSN
Method in brief: as §1

[8] = target: T7, CRH (C-Terminal Region, NT Biotin) (N-terminal Biotin-K; C-terminal NH2); assay: ELISA, CRH C-terminal region peptide (NT biotin)
T7 construct: central region plus C-terminal region of CRH; also called C-Terminal CRH; C-Ter-CRH
T7 peptide: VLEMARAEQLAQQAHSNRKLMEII
Method in brief: as §1

[9] = target: T8, CRH (Central Region, NT Biotin) (N-terminal Biotin-K; C-terminal NH2); assay: ELISA, CRH central region peptide (NT biotin)
T8 construct: also called Central CRH
T8 peptide: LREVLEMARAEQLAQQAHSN
Method in brief: as §1

[10] = target: T9, corticotropin-releasing hormone (CRH) peptide (human and mouse, UniProt P01143 145-185 (rat entry), not fully specified); assay: cell-based or functional assay
T9 peptide: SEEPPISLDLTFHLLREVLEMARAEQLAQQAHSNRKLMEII

B1: PR302334-26 (antibody, human IgG1, kappa, V domains shown)
VH: EVQLVESGGGLVQPGGSLRLSCAASGFTFSTYAMSWVRQAPGKGLEWVASIRSGGTTYYPDSVKGRFTISRDNSKNSLYLQMNSLRAEDTAVYYCTRGIDWGQGTTVTVSS
VL: DIVMTQSPDSLAVSLGERATINCKASQSVNNDVAWYQQKPGQPPRLLIYYASNRYTGVPDRFSGSGSGTDFTLTISSLQAEDLAVYFCQQDYSSWTFGGGTKVEIKR
EC50 [1]: 0.029 nM | binding result [2]: no binding (tested: 100 nM) | EC50 (read off the curve) (biotinylated CRH [3]): ~0.03 nM | EC50 (read off the curve) (biotinylated CRH [4]): ~0.03 nM | binding result [5]: no binding (tested: 100 nM) | binding result [6]: no binding (tested: 100 nM) | binding result [7]: no binding (tested: 100 nM) | binding result [8]: no binding (tested: 100 nM) | binding result [9]: no binding (tested: 100 nM) | hCRHR1-Luc 0.5 nM CRH IC50 [10]: 1.1 nM
